The values that follow are results of earlier work, collected in paper PMC4741374.

In data set [1] the target is GM-CSFR (Homo sapiens) (UniProt P15509).
Data set [2] addresses G-CSFR (Homo sapiens) (UniProt Q99062).
UniProt Q99062, sequence (Q99062 25-627): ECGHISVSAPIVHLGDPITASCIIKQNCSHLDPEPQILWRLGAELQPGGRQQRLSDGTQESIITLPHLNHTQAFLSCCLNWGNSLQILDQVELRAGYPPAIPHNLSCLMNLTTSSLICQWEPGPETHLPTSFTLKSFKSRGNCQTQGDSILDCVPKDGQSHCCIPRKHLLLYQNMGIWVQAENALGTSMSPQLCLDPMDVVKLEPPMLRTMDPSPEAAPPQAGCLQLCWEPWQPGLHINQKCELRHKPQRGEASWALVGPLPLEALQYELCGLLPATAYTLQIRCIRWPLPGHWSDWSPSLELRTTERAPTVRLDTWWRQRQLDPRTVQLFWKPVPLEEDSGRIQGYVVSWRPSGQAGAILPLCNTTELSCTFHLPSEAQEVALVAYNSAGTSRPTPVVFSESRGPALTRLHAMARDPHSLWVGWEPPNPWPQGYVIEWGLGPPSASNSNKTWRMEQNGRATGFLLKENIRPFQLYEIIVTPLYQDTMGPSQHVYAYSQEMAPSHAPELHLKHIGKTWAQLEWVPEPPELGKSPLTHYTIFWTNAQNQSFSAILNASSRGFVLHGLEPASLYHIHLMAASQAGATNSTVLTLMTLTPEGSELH

UniProt P15509, sequence (P15509 23-320, chain 1 of 2): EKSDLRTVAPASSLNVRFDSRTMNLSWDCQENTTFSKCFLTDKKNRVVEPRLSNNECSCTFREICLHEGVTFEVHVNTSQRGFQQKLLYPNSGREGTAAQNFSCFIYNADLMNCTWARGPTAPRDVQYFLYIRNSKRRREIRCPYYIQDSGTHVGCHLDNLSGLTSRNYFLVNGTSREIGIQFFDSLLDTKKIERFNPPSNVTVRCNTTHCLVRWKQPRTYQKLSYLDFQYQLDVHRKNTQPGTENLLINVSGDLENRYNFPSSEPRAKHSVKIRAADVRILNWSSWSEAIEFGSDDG
UniProt P15509, sequence (P32927 17-443, chain 2 of 2, further chain): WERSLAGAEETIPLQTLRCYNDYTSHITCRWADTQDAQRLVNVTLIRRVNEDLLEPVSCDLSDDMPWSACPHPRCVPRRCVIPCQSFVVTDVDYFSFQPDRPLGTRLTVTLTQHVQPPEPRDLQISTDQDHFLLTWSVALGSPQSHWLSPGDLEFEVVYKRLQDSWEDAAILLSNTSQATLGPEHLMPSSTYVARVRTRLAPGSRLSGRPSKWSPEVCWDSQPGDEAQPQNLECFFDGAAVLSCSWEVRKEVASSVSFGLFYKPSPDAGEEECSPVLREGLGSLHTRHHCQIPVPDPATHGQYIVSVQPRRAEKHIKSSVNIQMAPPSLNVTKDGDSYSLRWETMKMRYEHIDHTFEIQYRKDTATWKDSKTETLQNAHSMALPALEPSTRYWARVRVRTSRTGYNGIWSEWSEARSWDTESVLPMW

On to GM-CSF (from UniProt P04141), for which, in data set [1], the Kd (in general, a measure of binding affinity in units of concentration) was 0.1 nM.

In the case of G-CSF (from UniProt P09919), the Kd in data set [2] was 0.5 nM.
